Experiments:
[1] = biological target: T1, bovine serum albumin (BSA) (bovine, UniProt P02769 25-607); experiment: indirect EIA, compounds coated on microtiter plates, clonal supernatant, goat anti-mouse IgG HRP detection
T1 construct: Unconjugated carrier protein used as a screening control; also called carrier protein
Procedure: (§1) An assay was developed to screen the Mabs for reactivity to the FTC conjugates. Microtiter plates were coated with the following reagents: FTC-peptide-dextran, FTC-peptide, FTC-peptide-LPH, FTC-peptide-BSA, FTC heptanoic acid, peptide only, peptide-LPH, peptide-BSA, BSA, LPH, and normal mouse serum (NMS). All compounds were diluted into sodium bicarbonate buffer, pH 9.6, to a concentration of 5 ug/ml; NMS was diluted 1:15. One hundred microliters of each solution was added to a column of the microtiter plate such that each row of the plate allowed the testing of a single clonal supernatant against all of the compounds in a single run. Plates were incubated at 4° C. overnight and then washed 3× with phosphate-buffered saline (PBS) containing 0.05% Tween 20 (PBS-T). Plates were blocked with PBS containing 0.5% nonfat dry milk for 1 hour at 37° C., washed 3×, and dried at 37° C. for 30 minutes. Prepared plates were covered with an adhesive seal, placed into a moisture resistant bag, and stored in a dessicant chamber at 20-24° C. until use.

[2] = biological target: T2, limulus polyphemus hemocyanin II (LPH) (Limulus polyphemus, UniProt P04253 1-628, limits assumed); experiment: as above
T2 construct: Unconjugated carrier protein used as a screening control; also called carrier protein
T2 sequence (looked up): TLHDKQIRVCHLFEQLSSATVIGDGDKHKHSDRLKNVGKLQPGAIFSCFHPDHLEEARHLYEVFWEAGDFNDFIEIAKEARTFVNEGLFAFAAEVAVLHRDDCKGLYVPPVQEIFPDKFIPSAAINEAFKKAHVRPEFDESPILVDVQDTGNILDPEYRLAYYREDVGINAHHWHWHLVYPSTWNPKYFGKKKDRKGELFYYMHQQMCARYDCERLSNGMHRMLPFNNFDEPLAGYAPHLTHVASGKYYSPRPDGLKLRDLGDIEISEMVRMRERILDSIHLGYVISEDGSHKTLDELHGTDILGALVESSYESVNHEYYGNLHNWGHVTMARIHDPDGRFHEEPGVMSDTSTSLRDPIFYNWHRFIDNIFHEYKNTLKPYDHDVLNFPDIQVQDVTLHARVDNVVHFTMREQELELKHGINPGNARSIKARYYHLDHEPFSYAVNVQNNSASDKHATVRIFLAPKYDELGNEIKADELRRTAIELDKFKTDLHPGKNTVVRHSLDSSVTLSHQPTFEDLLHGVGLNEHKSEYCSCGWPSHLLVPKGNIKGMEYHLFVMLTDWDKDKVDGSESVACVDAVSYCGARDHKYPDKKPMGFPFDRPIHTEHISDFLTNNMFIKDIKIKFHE
Procedure: as §1

T1 sequence (P02769 25-607 limits assumed): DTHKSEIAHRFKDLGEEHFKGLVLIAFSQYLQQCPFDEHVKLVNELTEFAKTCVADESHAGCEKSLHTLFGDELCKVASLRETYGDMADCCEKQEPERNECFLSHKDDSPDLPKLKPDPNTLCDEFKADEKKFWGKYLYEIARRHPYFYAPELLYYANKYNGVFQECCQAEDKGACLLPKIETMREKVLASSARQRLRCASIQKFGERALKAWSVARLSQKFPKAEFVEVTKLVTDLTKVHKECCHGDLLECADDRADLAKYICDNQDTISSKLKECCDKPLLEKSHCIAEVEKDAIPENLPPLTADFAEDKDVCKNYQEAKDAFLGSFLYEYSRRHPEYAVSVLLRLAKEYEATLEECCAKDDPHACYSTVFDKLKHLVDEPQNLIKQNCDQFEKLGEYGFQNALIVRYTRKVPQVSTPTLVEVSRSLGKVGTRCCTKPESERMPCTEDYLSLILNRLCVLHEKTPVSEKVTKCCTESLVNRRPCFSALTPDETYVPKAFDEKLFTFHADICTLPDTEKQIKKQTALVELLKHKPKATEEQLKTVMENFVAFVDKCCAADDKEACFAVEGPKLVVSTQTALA

B1: 5D2 monoclonal antibody (antibody, mouse IgG2b, kappa, V domains shown)
VH: QVQLQQPGAELVKPGASVKVSCKASGYTFTSYWMHWVKQRPGQGLEWIGRIHLSDSDTNYNQNFKDKATLTVDKSSRTAHMHLSSLTSADSAVYYCAMGGTFQSNYDTYWGQGTLVTVSA
VL: DIQMTQSPASLSASVGETVTITCRASGNIHNYLAWYQQKQGKSPQLLVYNAKTLTDGVPSRFSGSGSGTQYSLKINSLQPEDFGNYYCQHFLYTPYTFGGGTKLEMRR
notes: Mouse IgG2b, kappa, raised against the small molecule emtricitabine (FTC); In the lateral flow assay the antibody was conjugated to gold; also called Mab 5D2; FTC (5D2) monoclonal antibody
binding result [1]: no binding (tested: 5 ug/ml (coating concentration))
binding result [2]: no binding (tested: 5 ug/ml (coating concentration))

From patent publication US20210253738A1 (UNITED STATES OF AMERICA AS REPRESENTED BY THE SECRETARY …, published 2021)
